Source: patent US20220204609A1 (SHANDONG BOAN BIOTECHNOLOGY, published 2022)
Where a chain is given by its changes, count along the chain named. Read-outs that look alike come from different tables or passages of the source.

B1: CLDQ1-CA841-IgG1 (antibody, V domains shown)
VH: QVQLVQSGAEVKKPGSSVKVSCKASGGTFSSYAISWVRQAPGQGLEWMGRIIPILGIANYAQKFQGRVTVTADKSTSTAYMELSSLRSEDTAVYYCARERDNWDPYYYYYGMDVWGQGTTVTVSS
VL: DIQMTQSPSTLSASVGDRVTITCRASQSINSWLAWYQQKPGKAPKLLIYKASSLESGVPSRFSGSGSGTEFTLTISSLQPDDFATYYCQQYNSFPLTFGGGTKVEIKR
notes: Complete IgG1 made in HEK293 cells
B2: IMAB362 (antibody, human IgG1, kappa, V domains shown)
VH: QVQLQQPGAELVRPGASVKLSCKASGYTFTSYWINWVKQRPGQGLEWIGNIYPSDSYTNYNQKFKDKATLTVDKSSSTAYMQLSSPTSEDSAVYYCTRSWRGNSFDYWGQGTTLTVSS
VL: DIVMTQSPSSLTVTAGEKVTMSCKSSQSLLNSGNQKNYLTWYQQKPGQPPKLLIYWASTRESGVPDRFTGSGSGTDFTLTISSVQAEDLAVYYCQNDYSYPFTFGSGTKLEIKR
B3: CLD389-CA802-IgG1 (antibody, V domains shown)
VH: QVQLVESGGGVVQPGRSLRLSCAASGFTFSSYAMHWVRQVPGKGLEWVAIISYDGSIKYYADSVKGQFTISRDNSKNTLSLQMNSLRPEDTAVYYCARDPTMVRGVRGMDVWGQGTTVTVSS
VL: DIQMTQSPSSLSASVGDRVTITCRASQGIRNDLGWYQQKPGKAPKLLIYAASSLQSGVPSRFSGSGSGTDFTLTISSLQPEDFATYYCLQDYNYPLTFGGGTKLEIKR
notes: as for B1
B4: CLD389-CA852-IgG1 (antibody, V domains shown)
VH: B3 VH with V40A, I50V, I57K, Q67R, S80Y, P88A
VL: B3 VL with D1E, Q3V, S10T, V15I, L104V
notes: as for B1
B5: CLD389-279-IgG1 (antibody, V domains shown)
VH: EVQLVQSGGGVVQPGRSLRLSCAASGFTFSNYAMHWVRQAPGKGLEWVAVISYDGSNKYYADSVKGRFTISRDNSKNTLYLQMNSLRAEDTAVYYCARELRFFDWLLGRAFDIWGQGTMVTVSS
VL: B3 VL with D1E, Q3V, S9P, L96W, G100Q
notes: Complete IgG1 made in HEK293 cells; also called C279; CLD389-C279

Key:
Claudin18.2 on cells [1] = molecular target: T1, Claudin18.2 on cells (human, UniProt P56856-2 1-261); test: cell-based or functional assay
Claudin18.2 on cells [2] = molecular target: T1, Claudin18.2 on cells; test: flow cytometry on 293T-Claudin18.2 cells, antibody at 1.5 µg/mL
Procedure: (§1) Each candidate antibody was serially diluted with FACS buffer (sterile PBS, 0.2% BSA), and added to the 96-well round-bottom plate at 50 μL/well before an incubation at 4° C. for 1 h. The supernatant was discarded after centrifugation at 2000 rpm for 3 min.

Claudin18.2 on cells [3] = molecular target: T1, Claudin18.2 on cells; test: flow cytometry on 293T-Claudin18.2 cells, antibody at 3 µg/mL
Procedure: as §1

Claudin18.2 on cells [4] = molecular target: T1, Claudin18.2 on cells; test: flow cytometry on NUGC4 cells, antibody at 3 µg/mL
Procedure: as §1

Claudin18.1 on cells [5] = molecular target: T2, Claudin18.1 on cells (human, UniProt P56856 1-261); test: flow cytometry on 293T-Claudin18.1 cells, antibody at 0.75 µg/mL
T2 construct: whole, on cells
Procedure: as §1

Claudin18.1 on cells [6] = molecular target: T2, Claudin18.1 on cells; test: flow cytometry on 293T-Claudin18.1 cells, antibody at 3 µg/mL
Procedure: as §1

Claudin18.2 on cells [7] = molecular target: T1, Claudin18.2 on cells; test: flow cytometry on NUGC4 cells, antibody at 0.75 µg/mL
Procedure: as §1

Claudin18.1 on cells [8] = molecular target: T2, Claudin18.1 on cells; test: flow cytometry on 293T-Claudin18.1 cells, antibody at 1.5 µg/mL
Procedure: as §1

Claudin18.2 on cells [9] = molecular target: T1, Claudin18.2 on cells; test: flow cytometry on NUGC4 cells, antibody at 1.5 µg/mL
Procedure: as §1

Claudin18.1 on cells [10] = molecular target: T2, Claudin18.1 on cells; test: flow cytometry on 293T-Claudin18.1 cells, antibody at 0.375 µg/mL
Procedure: as §1

Claudin18.2 on cells [11] = molecular target: T1, Claudin18.2 on cells; test: flow cytometry on 293T-Claudin18.2 cells, antibody at 0.75 µg/mL
Procedure: as §1

Claudin18.2 on cells [12] = molecular target: T1, Claudin18.2 on cells; test: flow cytometry on 293T-Claudin18.2 cells, antibody at 0.375 µg/mL
Procedure: as §1

Claudin18.2 on cells [13] = molecular target: T1, Claudin18.2 on cells; test: cell-based or functional assay; remark: listed apart in the source
Claudin18.2 on cells [14] = molecular target: T1, Claudin18.2 on cells; test: flow cytometry on 293T-Claudin18.2 cells, antibody at 1.5 µg/mL; remark: listed apart in the source
Procedure: as §1

Claudin18.2 on cells [15] = molecular target: T1, Claudin18.2 on cells; test: flow cytometry on NUGC4 cells, antibody at 0.75 µg/mL; remark: listed apart in the source
Procedure: as §1

Claudin18.2 on cells [16] = molecular target: T1, Claudin18.2 on cells; test: cell-based or functional assay; remark: listed apart in the source
Claudin18.2 on cells [17] = molecular target: T1, Claudin18.2 on cells; test: cell-based or functional assay; remark: listed apart in the source
Claudin18.2 on cells [18] = molecular target: T1, Claudin18.2 on cells; test: flow cytometry on 293T-Claudin18.2 cells, antibody at 0.375 µg/mL; remark: listed apart in the source
Procedure: as §1

Claudin18.2 on cells [19] = molecular target: T1, Claudin18.2 on cells; test: flow cytometry on NUGC4 cells, antibody at 3 µg/mL; remark: listed apart in the source
Procedure: as §1

Claudin18.2 on cells [20] = molecular target: T1, Claudin18.2 on cells; test: flow cytometry on 293T-Claudin18.2 cells, antibody at 0.75 µg/mL; remark: listed apart in the source
Procedure: as §1

Claudin18.2 on cells [21] = molecular target: T1, Claudin18.2 on cells; test: flow cytometry on NUGC4 cells, antibody at 1.5 µg/mL; remark: listed apart in the source
Procedure: as §1

Binder	ADCC EC50 (µg/mL), NUGC4 target cells, Jurkat reporter effector cells, Bio-Glo (Claudin18.2 on cells [1]) [µg/mL]	mean fluorescence intensity (Claudin18.2 on cells [2])	mean fluorescence intensity (Claudin18.2 on cells [3])	mean fluorescence intensity (Claudin18.2 on cells [4])	mean fluorescence intensity (Claudin18.1 on cells [5])	mean fluorescence intensity (Claudin18.1 on cells [6])	mean fluorescence intensity (Claudin18.2 on cells [7])	mean fluorescence intensity (Claudin18.1 on cells [8])	mean fluorescence intensity (Claudin18.2 on cells [9])	mean fluorescence intensity (Claudin18.1 on cells [10])	mean fluorescence intensity (Claudin18.2 on cells [11])	mean fluorescence intensity (Claudin18.2 on cells [12])	ADCC inhibition rate, %, antibody 0.1 µg/mL, 293T-Claudin18.2 target cells, PBMC effectors, LDH (Claudin18.2 on cells [13]) [%]	ADCC inhibition rate, %, antibody 1 µg/mL, 293T-Claudin18.2 target cells, PBMC effectors, LDH (Claudin18.2 on cells [13]) [%]	ADCC inhibition rate, %, antibody 10 µg/mL, 293T-Claudin18.2 target cells, PBMC effectors, LDH (Claudin18.2 on cells [13]) [%]	mean fluorescence intensity (Claudin18.2 on cells [15])	ADCC EC50 (µg/mL), NUGC4 target cells, Jurkat reporter effector cells, Bio-Glo (Claudin18.2 on cells [16]) [µg/mL]	mean fluorescence intensity (Claudin18.2 on cells [19])	mean fluorescence intensity (Claudin18.2 on cells [21])	further results
B1	17.3	855000	1.09e+06	32400	18100	11000	11100	37900	13200	21500	583000	308000	15.6	27.2	58.5					
B2	2.15	849000	902000	131000			69600		97100		689000	498000	20.8	41.4	60.6	55400	2.56	117000	93500	mean fluorescence intensity (Claudin18.2 on cells [14]): 878000; ADCC inhibition rate, %, antibody 0.5 µg/mL, 293T-Claudin18.2 target cells, PBMC effectors, LDH (Claudin18.2 on cells [17]): 18%; ADCC inhibition rate, %, antibody 5 µg/mL, 293T-Claudin18.2 target cells, PBMC effectors, LDH (Claudin18.2 on cells [17]): 45%; ADCC inhibition rate, %, antibody 50 µg/mL, 293T-Claudin18.2 target cells, PBMC effectors, LDH (Claudin18.2 on cells [17]): 49%; mean fluorescence intensity (Claudin18.2 on cells [18]): 407000; mean fluorescence intensity (Claudin18.2 on cells [20]): 650000
B3		1.05e+06	1.23e+06	113000	141000	194000	24400	163000	58100	96700	774000	495000	25.6	61.4	61.2		15.7			
B4		578000	742000								365000	196000	-0.212	12.3	39.9	9230		18400	12000	
B5		1.06e+06	1.24e+06	158000			40000		78300		776000	488000	7.53	16.1	41		0.81			
